Results taken from patent publication US20180193475A1 (Novartis, published 2018).
Where a chain is given by its changes, count along the chain named.

B1: NEG026 (antibody, human IgG1, kappa, V domains shown)
VH: EVQLVESGGGLVQPGGSLRLSCAASGFTFSDYYMAWVRQAPGKGLEWVANINQNTGSTYYVDSVQGRFTISRDNAKNSLYLQMNSLRAEDTAVYYCARGDYYGTTYWYFDVWGQGTTVTVSS
VL: EIVMTQSPATLSLSPGERATLSCRASQDISNYLNWYQQKPGQAPRLLIYYTSRLQSGIPARFSGSGSGTDYTLTISSLEPEDFAVYYCQQGKKLWSFGGGTKVEIKR
notes: Humanized, optimized variant of 9P3; human IgG1 kappa
B2: NEG086 (antibody, human IgG1, kappa, V domains shown)
VH: B1 VH with N54I, T55A
VL: DIQMTQSPSSLSASVGDRVTITCRASQSISSYLNWYQQKPGKAPKLLIYYTSRLQSGVPSRFSGSGSGTDFTLTISSLQPEDFATYYCQQGRRLWSFGGGTKVEIKR
notes: as for B1
B3: NEG027 (antibody, human IgG1, kappa, V domains shown)
VH: B1 VH with N50S, V61L, Q65R
VL: B1 VL
notes: as for B1
B4: NEG085 (antibody, human IgG1, kappa, V domains shown)
VH: B1 VH with T28A, D31G, Q53Y, N54P, T55G, G56S, V61L, Q65K
VL: B2 VL
B5: NEG087 (antibody, human IgG1, kappa, V domains shown)
VH: B1 VH with N50S, V61L, Q65R
VL: B2 VL
notes: as for B1
B6: NEG024 (antibody, human IgG1, kappa, V domains shown)
VH: B1 VH with N54I, T55A, V61L, Q65R
VL: B1 VL
notes: as for B1
B7: anti-cKIT antibody 9P3 (antibody, V domains shown)
VH: EVRLVESEGGLVQPRSSMKLSCTASGFTFSDYYMAWVRQVPEKGLEWVANINYDGSSTYYLDSLKSRFIISRDNAKNILYLQMSSLKSEDTATYYCARGDYYGTTYWYFDVWGTGTTVTVSS
VL: DIQMTQTTSSLSASLGDRVTISCRASQDISNYLNWYQQKPDGTVKLLIYYTSRLQSGVPSRFSGSGSGTDYSLTISNLEQEDIATYFCQQGKKLWSFGGGTKLEIKR
notes: Hybridoma-derived mouse variable domains
B8: 20507 (antibody, human IgG1, kappa, V domains shown)
VH: QVQLVQSGAEVKKPGSSVKVSCKASGGTFSSYAISWVRQAPGQGLEWMGTIGPFEGQPRYAQKFQGRVTITADESTSTAYMELSSLRSEDTAVYYCARGGYISDFDVWGQGTLVTVSS
VL: DIQMTQSPSSLSASVGDRVTITCRASQSISNYLAWYQQKPGKAPKLLIYDASSLQSGVPSRFSGSGSGTDFTLTISSLQPEDFATYYCQQYYYESITFGQGTKVEIKR
notes: HuCAL-derived human IgG1 kappa
B9: 20376 (antibody, human IgG1, lambda, V domains shown)
VH: QVQLVQSGAEVKKPGSSVKVSCKASGGTFSSYAISWVRQAPGQGLEWMGGIIPMSGRTTYAQKFQGRVTITADESTSTAYMELSSLRSEDTAVYYCARDYGPEAPDYGQSTSYFWYYAFDPWGQGTLVTVSS
VL: DIELTQPPSVSVSPGQTASITCSGDNIPSYFVHWYQQKPGQAPVLVIYDDNDRPSGIPERFSGSNSGNTATLTISGTQAEDEADYYCSSWDQDTVVFGGGTKLTVLG

What follows are binders tested against T1, Human cKIT D1-3 (ECD subdomains 1-3, ligand binding domain) (human, UniProt P10721 26-311) (assay: ELISA on coated cKIT ECD subdomains).
T1 construct: also called cKIT subdomains 1-3
T1 sequence (P10721 other isoform, or with tags, fused parts or gaps limits assumed): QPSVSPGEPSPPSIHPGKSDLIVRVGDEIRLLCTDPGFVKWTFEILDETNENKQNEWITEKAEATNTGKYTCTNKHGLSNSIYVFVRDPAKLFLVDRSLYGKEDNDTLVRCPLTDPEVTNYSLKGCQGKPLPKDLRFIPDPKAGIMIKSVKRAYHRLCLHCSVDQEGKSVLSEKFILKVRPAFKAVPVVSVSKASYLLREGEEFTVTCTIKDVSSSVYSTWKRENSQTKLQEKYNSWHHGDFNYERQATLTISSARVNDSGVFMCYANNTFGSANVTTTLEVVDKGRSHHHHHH
B1: binds.

Each binder was assayed against T2, Mouse cKIT ECD, C-terminal 6x His (Sino Biological Inc, catalog number 50530-M08H) (mouse, UniProt P05532 25-527) (assay: SPR (Biacore 2000): antibody captured by anti-human Fc, cKIT ECD in solution).
T2 construct: extracellular domain; Bought protein; not shown: C-terminal 6x His tag
T2 sequence (looked up): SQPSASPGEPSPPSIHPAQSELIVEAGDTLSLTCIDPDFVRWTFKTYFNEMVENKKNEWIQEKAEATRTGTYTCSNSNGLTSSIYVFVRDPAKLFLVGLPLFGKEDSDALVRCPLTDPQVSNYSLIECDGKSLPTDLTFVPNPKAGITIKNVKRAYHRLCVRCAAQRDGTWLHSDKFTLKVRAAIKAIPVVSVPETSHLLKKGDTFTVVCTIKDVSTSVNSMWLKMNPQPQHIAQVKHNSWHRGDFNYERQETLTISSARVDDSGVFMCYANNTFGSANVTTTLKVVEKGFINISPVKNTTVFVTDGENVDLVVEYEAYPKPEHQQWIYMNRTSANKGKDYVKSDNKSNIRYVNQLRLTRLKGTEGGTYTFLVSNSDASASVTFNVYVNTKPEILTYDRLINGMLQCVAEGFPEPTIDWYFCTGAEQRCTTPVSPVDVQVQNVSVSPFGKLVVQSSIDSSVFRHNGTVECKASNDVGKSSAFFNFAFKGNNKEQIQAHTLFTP
Protocol: (§1) Affinity of the antibodies to cKIT species orthologues and also to cKIT was determined using SPR technology using a Biacore® 2000 instrument (GE Healthcare, Pittsburgh, Pa.) and with CM5 sensor chips.
(§2) Briefly, HBS-P (0.01 M HEPES, pH 7.4, 0.15 M NaCl, 0.005% Surfactant P20) supplemented with 2% Odyssey® blocking buffer (Li-Cor Biosciences, Lincoln, Nebr.) was used as the running buffer for all the experiments. The immobilization level and analyte interactions were measured by response unit (RU).
(§3) For kinetic measurements, the experiments were performed in which the antibodies were captured to the sensor chip surface via the immobilized anti-human Fc antibody and the ability of the cKIT proteins to bind in free solution was determined. […] 0.1-1 μg/ml of test antibodies were then injected at 10 μl/min for 1 minute. […] Subsequently, 3.125-50 nM of cKIT receptor extracellular domains (ECD) were diluted in a 2-fold series and injected at a flow rate of 40 μl/min for 3 min over both reference and test flow cells. Table of tested ECDs is listed below (Table 6). Dissociation of the binding was followed for 10 min. After each injection cycle, the chip surface was regenerated with 3 M MgCl₂ at 10 μl/min for 30 seconds.
B2: no binding (tested: 3.125-50 nM ECD injected). B3: no binding (tested: 3.125-50 nM ECD injected). B4: no binding (tested: 3.125-50 nM ECD injected). B5: no binding (tested: 3.125-50 nM ECD injected). B6: no binding (tested: 3.125-50 nM ECD injected). B1: no binding (tested: 3.125-50 nM ECD injected). B7: no binding (tested: 3.125-50 nM ECD injected). B8: no binding (tested: 3.125-50 nM ECD injected).

Molecular target: T3, Rat cKIT D1-5, C-terminal mFc (rat)
T3 construct: The whole entry is rat cKIT ECD residues 25-526, a linker and a mouse Fc tag; also called rat cKIT-mFc
T3 chain: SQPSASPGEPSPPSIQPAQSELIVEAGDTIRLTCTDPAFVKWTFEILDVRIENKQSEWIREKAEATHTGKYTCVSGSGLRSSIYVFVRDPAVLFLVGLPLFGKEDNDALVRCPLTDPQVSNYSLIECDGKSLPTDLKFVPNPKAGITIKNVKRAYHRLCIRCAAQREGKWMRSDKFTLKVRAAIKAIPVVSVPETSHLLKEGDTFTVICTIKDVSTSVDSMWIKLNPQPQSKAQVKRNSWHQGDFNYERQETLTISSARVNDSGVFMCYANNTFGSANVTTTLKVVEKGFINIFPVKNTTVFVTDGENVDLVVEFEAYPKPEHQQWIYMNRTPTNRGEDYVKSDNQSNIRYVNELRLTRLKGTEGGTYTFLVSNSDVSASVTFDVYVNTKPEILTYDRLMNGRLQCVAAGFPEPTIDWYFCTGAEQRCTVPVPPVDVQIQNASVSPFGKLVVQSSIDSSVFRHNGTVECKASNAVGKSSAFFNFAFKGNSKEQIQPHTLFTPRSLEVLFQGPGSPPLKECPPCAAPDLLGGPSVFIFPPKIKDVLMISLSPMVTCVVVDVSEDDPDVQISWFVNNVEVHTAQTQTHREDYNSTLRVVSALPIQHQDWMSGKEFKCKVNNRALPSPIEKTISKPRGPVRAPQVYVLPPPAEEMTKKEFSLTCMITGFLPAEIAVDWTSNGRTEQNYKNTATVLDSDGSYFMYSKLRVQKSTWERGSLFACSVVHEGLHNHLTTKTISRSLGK
Experiment: as above
Protocol: as §1, §2, §3
B2: no binding (tested: 3.125-50 nM ECD injected). B3: no binding (tested: 3.125-50 nM ECD injected). B4: no binding (tested: 3.125-50 nM ECD injected). B5: no binding (tested: 3.125-50 nM ECD injected). B6: no binding (tested: 3.125-50 nM ECD injected). B1: no binding (tested: 3.125-50 nM ECD injected). B7: no binding (tested: 3.125-50 nM ECD injected). B8: no binding (tested: 3.125-50 nM ECD injected). B9: no binding (tested: 3.125-50 nM ECD injected).

What follows are binders tested against T4, Human cKIT D1-5 (human cKIT ECD, C-terminal 6x His) (human, UniProt P10721 26-524) (assay: SPR (Biacore 2000): antibody captured by anti-human Fc on CM5, cKIT ECD in solution, 25 C, 1:1 fit).
T4 construct: also called human cKIT-His
T4 sequence (P10721 other isoform, or with tags, fused parts or gaps limits assumed): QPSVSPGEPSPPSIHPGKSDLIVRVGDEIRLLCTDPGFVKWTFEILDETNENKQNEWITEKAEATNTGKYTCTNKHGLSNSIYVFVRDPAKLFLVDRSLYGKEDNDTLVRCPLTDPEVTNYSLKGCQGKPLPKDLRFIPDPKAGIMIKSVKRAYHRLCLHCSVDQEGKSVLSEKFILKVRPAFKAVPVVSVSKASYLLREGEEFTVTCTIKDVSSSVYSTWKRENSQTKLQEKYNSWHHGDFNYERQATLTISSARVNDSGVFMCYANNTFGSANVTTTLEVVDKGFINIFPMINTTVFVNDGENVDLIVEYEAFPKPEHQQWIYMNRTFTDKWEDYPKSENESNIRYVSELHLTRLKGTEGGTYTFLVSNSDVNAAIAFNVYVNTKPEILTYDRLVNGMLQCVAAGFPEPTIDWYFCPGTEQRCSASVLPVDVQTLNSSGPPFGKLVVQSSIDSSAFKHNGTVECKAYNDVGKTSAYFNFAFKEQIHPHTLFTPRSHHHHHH
Protocol: as §1, §2, §3
B2 gave a Kd of 1.44 nM. B3 gave a Kd of 1.34 nM. B4 was tested, and the Kd was 8.4 nM. B5 was tested, and the Kd was 1.13 nM. B6 showed a Kd of 1.31 nM. Work on B7 yielded a Kd of 20 nM. B9 showed a Kd of 9.1 nM.

The binders below were run against T2, Mouse cKIT ECD, C-terminal 6x His (Sino …) in the same assay as above.
Protocol: as §1, §2, §3
B9 was tested, and the Kd was 2.5 nM.

Molecular target: T5, Cynomolgus monkey cKIT D1-5 (cyno cKIT ECD, C-terminal 6x His) (cynomolgus monkey, UniProt P10721 25-520 (human entry))
T5 construct: The signal peptide is not part of the protein in the assay; The entry includes the C-terminal His tag; also called cynomolgus monkey ECD
T5 chain: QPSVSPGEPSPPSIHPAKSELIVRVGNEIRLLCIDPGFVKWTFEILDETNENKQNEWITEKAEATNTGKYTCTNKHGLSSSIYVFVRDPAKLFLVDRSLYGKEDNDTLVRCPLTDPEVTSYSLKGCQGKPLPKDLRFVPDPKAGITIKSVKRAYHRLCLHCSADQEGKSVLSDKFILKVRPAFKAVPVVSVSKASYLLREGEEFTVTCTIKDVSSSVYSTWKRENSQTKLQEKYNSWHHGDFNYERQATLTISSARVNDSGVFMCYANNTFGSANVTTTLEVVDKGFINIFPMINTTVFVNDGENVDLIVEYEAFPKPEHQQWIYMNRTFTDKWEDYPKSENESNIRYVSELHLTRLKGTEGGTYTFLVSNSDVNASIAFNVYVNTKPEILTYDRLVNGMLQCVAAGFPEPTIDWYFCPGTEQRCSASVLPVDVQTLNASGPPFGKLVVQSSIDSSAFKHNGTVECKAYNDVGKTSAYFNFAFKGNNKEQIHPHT
Experiment: as above
Protocol: as §1, §2, §3
With B2 the Kd was 1.34 nM. With B4 the Kd was 6.14 nM. For B5, the Kd was 1.39 nM. For B6, the Kd was 1.15 nM. In the case of B8, the Kd is reported as 0.56 nM. B9 was tested, and the Kd was 4.8 nM.
